In experiment [1] the target is CH103. Put plainly: D7324-capture ELISA. The conditions noted are these: PGT145-purified trimers; SOSIP.664 AUC-value printed 1.34. (An ELISA detects its analyte on a solid surface through an enzyme-linked reagent.)
The target in experiment [2] is 2G12. The experiment in a line: D7324-capture ELISA. The conditions noted are these: PGT145-purified trimers; SOSIP.664 AUC-value printed 2.89.
Experiment [3] concerns the target PG9. The experiment in a line: D7324-capture ELISA. The conditions noted are these: PGT145-purified trimers; SOSIP.664 AUC-value printed 1.70.
Experiment [4] has as its target PG16. Put plainly: D7324-capture ELISA. Conditions: PGT145-purified trimers; SOSIP.664 AUC-value printed 0.55.
For experiment [5], the target named is VRC26.09. The experiment in a line: D7324-capture ELISA. The conditions noted are these: PGT145-purified trimers; SOSIP.664 AUC-value printed 0.49.
Experiment [6] addresses gl-CH01. The experiment in a line: D7324-capture ELISA. The conditions noted are these: PGT145-purified trimers; SOSIP.664 AUC-value printed 0.14.
In experiment [7] the target is gl-PG16. Put plainly: D7324-capture ELISA. The conditions noted are these: PGT145-purified trimers; SOSIP.664 AUC-value printed 0.01.
For experiment [8], the target named is PGT145. Put plainly: D7324-capture ELISA. Conditions: PGT145-purified trimers; SOSIP.664 AUC-value printed 0.68.
In experiment [9] the target is PGT151. The experiment in a line: D7324-capture ELISA. Conditions: PGT145-purified trimers; SOSIP.664 AUC-value printed 0.75.
The target in experiment [10] is F105. The experiment in a line: D7324-capture ELISA. Conditions: PGT145-purified trimers; SOSIP.664 AUC-value printed 0.12.
In experiment [11] the target is gl-PG9. The experiment in a line: D7324-capture ELISA. Conditions: PGT145-purified trimers; SOSIP.664 AUC-value printed 0.14.
Experiment [12] has as its target CH01. Put plainly: D7324-capture ELISA. Conditions: PGT145-purified trimers; SOSIP.664 AUC-value printed 0.32.
Experiment [13] deals with PGT121. Put plainly: D7324-capture ELISA. The conditions noted are these: PGT145-purified trimers; SOSIP.664 AUC-value printed 1.60.
The target of experiment [14] is HIV-1 LAI Env (parental LAI virus) (HIV-1 (isolate LAI)) (UniProt P03377).

“BG505 SOSIP.664-D7324 trimer E153C; R178C; G152E”: the ratio to parent in [1] stood at 2.3; in experiment [2], 1; in [3] it was 2; in experiment [4], 1.7; in experiment [5], 1.3; in [6], 2.1. The ratio to parent in experiment [7] is 3.9; in experiment [8], 1; in [9], 1; in [10] it was 4.7; in [11], 1.4; in experiment [12], 1.9. Further, the ratio to parent in experiment [13] turned out to be 1.5.

With PG9 (antibody), the IC50 of neutralization of the parental LAI virus in [14] turned out to be 2 µg/mL.
